Results from PMC9160799, “PET Imaging of Acidic Tumor Environment With ^89Zr-labeled pHLIP Probes” (Frontiers in Oncology, 2022).
“Also recorded” adds a separate entry of the source. Where two headings read alike, the source gives them in different places. Square brackets hold non-standard residues; d marks the D form. Peptide text beside a SMILES is read from it. * marks the point of attachment. X1 = CC(=O)N(O)CCCCCNC(=O)CCC(=O)N(O)CCCCCNC(=O)CCC(=O)N(O)CCCCCNC(=O)CCC(=O)N(O)CCCCCNC(=S)Nc1ccc(NC(=S)*)cc1

Tests used:
[1] = Post-mortem biodistribution, RM-1 tumor model; assay type: in vivo, male athymic nude mice; conditions: male, athymic nude, mouse, iv, 1.2 nmol, total radioactivity; for tissue uptake at 48 h: RM-1, male athymic nude mice, 48 h p.i., i.v. 1.2 nmol, 7.4 MBq, gamma counting, mean ± S.D., n=4
Experimental: The media were provided by the MSK Media Preparation Core. […] Another aliquot was diluted with the medium so that 50 µL contained 1×10^6 cells.
(§1) The imaging and biodistribution studies were performed with male (RM-1 model) and female (4T1 model) athymic nude mice and the kidney-blocking experiments were performed with female SCID mice received from Charles River Laboratories (Stone Ridge, NY). After arrival, the mice were kept in the MSK vivarium for one week before any experimental handling was performed. The animals were allowed free access to water and food, and all animal care and experimental procedures were approved by the Institutional Animal Care and Use Committee (IACUC). For the subcutaneous allografts, a 1-to-1 ratio of Corning Matrigel Matrix and the cell solution was prepared and stored on ice for the injections. Each mouse received a subcutaneous injection of 100 µL (50 µL cell solution, viability > 90%, + 50 µL Matrigel) into the flank on the level of the right shoulder. The injections were performed under anesthesia (2% isoflurane, Baxter Healthcare, Deerfield, IL, USA).
The mice were intravenously injected (tail vein) with the radiolabeled pHLIP conjugates (1.2 nmol, 7.4 MBq/200 µCi, 100 µL, in sterile filtered PBS). The activity of the syringe prior to injection and after injection was used to determine the percent of injectate administered.
For the biodistribution studies the tumor-bearing mice were randomized before the injections. Only mice with suitable tumors (150–300 mm^3) were utilized. An exception was made for the 120-hour timepoint, for which only mice with smaller tumors (150 mm^3) were selected. The mice were grouped in cohorts of four. At the respective timepoint, the mice were euthanized (by CO2 asphyxiation, followed by cervical dislocation) and their blood was collected by cardiac puncture as a terminal procedure, followed by quick removal of the tumors. After this, the other organs/samples were collected. […] The exact activities of all samples of one mouse were determined by an Capintec® CRC-55tR dose calibrator. These decay-corrected measurements were used to determine a calibration factor and calibrate all counts to the corresponding activities. Activity concentrations were calculated as percentage injected dose per tissue weight (%ID/g wet tissue). All data was processed and visualized using Origin 8.5.

[2] = system: kidney uptake of [89Zr]Zr-DFOsqa-Lys-Var3; experiment: Kidney-blocking study (PET imaging); assay type: in vivo, healthy female SCID mice; conditions: drug IV 30 min before 7.4 MBq [89Zr]Zr-DFOsqa-Lys-Var3 (1.2 nmol); two doses per drug, n=2 each; PET 24 h p.i. vs control mice
Experimental: as §1, with “USA). Palpable tumors of similar size (100–300 mm^3) developed 5–8 days after grafting.” for “USA).”
PET images were obtained at the respective timepoints with the mice under anesthesia (2% isoflurane) on a microPET Focus 120 (Concorde Microsystems) or an Inveon PET-CT (Siemens) rodent scanner. All images were analyzed using the Medical Imaging Data Examiner Amide (version 0.9.0) or the Inveon reconstruction software suite. The counting rates in the reconstructed images were converted to percent of injected dose per weight (%ID/g) by applying a system-specific calibration factor. At the final timepoint, the remaining mice were euthanized (by CO2 asphyxiation, followed by cervical dislocation) and their tumors were resected for histological analysis.
Additional experiments were performed to investigate the influence of various kidney-uptake blockers and diuretics. Healthy female SCID mice received a “blocking agent” 30 minutes prior to the injection of [^89Zr]Zr-DFOsqa-Lys-Var3 (7.4 MBq/200 µCi, 1.2 nmol). […] The experimental set-up can be found in Table S6 .
Table S6. Summary of the kidney-blocking study. Healthy female SCID mice (2 mice per experiment/ dosage + 2 control mice without treatment, total of 22 mice) received a blocking agent intravenously 30 minutes prior to the injection of 7.4 MBq/200 µCi [89Zr]Zr-DFOsqa-Lys-Var3 (1.2 nmol pHLIP).
The drug dose was calculated as weight of drug (mg) per weight of mouse (kg). A potential kidney […]
calibrated images to the control mice (24 hours post injection). No drug led to a significant reduction […]
drug (IV 30 min before dose [mg/kg] effect on kidney mechanism of action [89Zr]Zr-pHLIP) (n=2) uptake […]
and water from the body; acts as a diuretic […]
organic anion transporter; blocks the uptake of organic anions […]
tubule via inhibition of the Na/Cl symporter; acts as a diuretic […]
increased – serum levels decreased

CC[C@@H](C)[C@@H](NC(=O)[C@H]1CCCN1C(=O)[C@@H](CC(N)=O)NC(=O)[C@@H](CCC(N)=O)NC(=O)[C@@H](CCC(=O)O)NC(=O)[C@@H](CCCCNC(=S)Nc1ccc(NC(=S)NCCCCCN(O)C(=O)CCC(=O)NCCCCCN(O)C(=O)CCC(=O)NCCCCCN(O)C(C)=O)cc1)NC(=O)[C@@H](C)NC(C)=O)C(=O)N[C@H](Cc1ccc(O)cc1)C(=O)N[C@H](Cc1c[nH]c2ccccc12)C(=O)N[C@H](C)C(=O)N[C@H](CCCNC(=N)N)C(=O)N[C@H](Cc1ccc(O)cc1)C(=O)N[C@H](C)C(=O)N[C@H](CC(=O)O)C(=O)N[C@H](Cc1c[nH]c2ccccc12)C(=O)N[C@H](CC(C)C)C(=O)N[C@H](Cc1ccccc1)C(=O)N[C@@H](C(=O)N[C@@H](C(=O)N1CCC[C@@H]1C(=O)N[C@H](CC(C)C)C(=O)N[C@H](CC(C)C)C(=O)N[C@H](CC(C)C)C(=O)N[C@H](CC(C)C)C(=O)N[C@H](CC(=O)O)C(=O)N[C@H](CC(C)C)C(=O)N[C@H](C)C(=O)N[C@H](CC(C)C)C(=O)N[C@H](CC(C)C)C(=O)N[C@@H](C(=O)N[C@H](CC(=O)O)C(=O)N[C@H](C)C(=O)N[C@H](CC(=O)O)C(=O)N[C@H](CCC(=O)O)C(=O)NCC(=O)N[C@@H](C(=O)NCC(=O)O)[C@H](C)O)C(C)C)[C@H](C)O)[C@H](C)O (89Zr complex, metal not drawn) [DFO-Lys-WT]
tissue uptake at 48 h ([1]; blood, read-out: Blood uptake): 0.1 ± 0.03 %ID/g
tissue uptake at 48 h ([1]; tibia, read-out: Tibia uptake): 2.3 ± 0.5 %ID/g

CN(C)c1nc(N)c(C(=O)NC(=N)N)nc1Cl [5-(N,N-dimethyl)amiloride]
effect on kidney uptake [2]: not significant; also recorded: none of these drugs led to a significant reduction of kidney uptake

CC(=O)N[C@H](C)C(=O)N[C@H](CCCCNC(=S)Nc1ccc(NC(=S)NCCCCCN(O)C(=O)CCC(=O)NCCCCCN(O)C(=O)CCC(=O)NCCCCCN(O)C(=O)CCC(=O)NCCCCCN(O)C(C)=O)cc1)C(=O)N[C@H](CC(=O)O)C(=O)N[C@H](CC(=O)O)C(=O)N[C@H](CCC(N)=O)C(=O)N[C@H](CC(N)=O)C(=O)N1CCC[C@@H]1C(=O)N[C@H](Cc1c[nH]c2ccccc12)C(=O)N[C@H](CCCNC(=N)N)C(=O)N[C@H](C)C(=O)N[C@H](Cc1ccc(O)cc1)C(=O)N[C@H](CC(C)C)C(=O)N[C@H](CC(=O)O)C(=O)N[C@H](CC(C)C)C(=O)N[C@H](CC(C)C)C(=O)N[C@H](Cc1ccccc1)C(=O)N1CCC[C@@H]1C(=O)N[C@@H](C(=O)N[C@H](CC(=O)O)C(=O)N[C@@H](C(=O)N[C@H](CC(C)C)C(=O)N[C@H](CC(C)C)C(=O)N[C@H](CC(C)C)C(=O)N[C@H](CC(=O)O)C(=O)N[C@H](CC(C)C)C(=O)N[C@H](CC(C)C)C(=O)N[C@H](Cc1c[nH]c2ccccc12)C(=O)N[C@H](C)C(=O)O)[C@H](C)O)[C@H](C)O [DFO*-Lys-Var3] (Ac-[dA][dK](X1)[dD][dD][dQ][dN][dP][dW][dR][dA][dY][dL][dD][dL][dL][dF][dP][dT][dD][dT][dL][dL][dL][dD][dL][dL][dW][dA]-OH; C-terminus assumed)
tissue uptake at 48 h ([1]; in vivo, read-out: Tibia uptake): 1.1 ± 0.5 %ID/g

CC[C@@H](C)[C@@H](NC(=O)[C@H]1CCCN1C(=O)[C@@H](CC(N)=O)NC(=O)[C@@H](CCC(N)=O)NC(=O)[C@@H](CCC(=O)O)NC(=O)[C@@H](CCCCNC(=S)Nc1ccc(NC(=S)NCCCCCN(O)C(=O)CCC(=O)NCCCCCN(O)C(=O)CCC(=O)NCCCCCN(O)C(C)=O)cc1)NC(=O)[C@@H](C)NC(C)=O)C(=O)N[C@H](Cc1ccc(O)cc1)C(=O)N[C@H](Cc1c[nH]c2ccccc12)C(=O)N[C@H](C)C(=O)N[C@H](CCCNC(=N)N)C(=O)N[C@H](Cc1ccc(O)cc1)C(=O)N[C@H](C)C(=O)N[C@H](CC(=O)O)C(=O)N[C@H](Cc1c[nH]c2ccccc12)C(=O)N[C@H](CC(C)C)C(=O)N[C@H](Cc1ccccc1)C(=O)N[C@@H](C(=O)N[C@@H](C(=O)N1CCC[C@@H]1C(=O)N[C@H](CC(C)C)C(=O)N[C@H](CC(C)C)C(=O)N[C@H](CC(C)C)C(=O)N[C@H](CC(C)C)C(=O)N[C@H](CC(=O)O)C(=O)N[C@H](CC(C)C)C(=O)N[C@H](C)C(=O)N[C@H](CC(C)C)C(=O)N[C@H](CC(C)C)C(=O)N[C@@H](C(=O)N[C@H](CC(=O)O)C(=O)N[C@H](C)C(=O)N[C@H](CC(=O)O)C(=O)N[C@H](CCC(=O)O)C(=O)NCC(=O)N[C@@H](C(=O)NCC(=O)O)[C@H](C)O)C(C)C)[C@H](C)O)[C@H](C)O [DFO-Lys-WT]
tissue uptake at 48 h ([1]; in vivo, read-out: Brain uptake): 0.03 ± 0.03 %ID/g
tissue uptake at 48 h ([1]; in vivo, read-out: Kidneys uptake): 14.2 ± 1.2 %ID/g
tissue uptake at 48 h ([1]; in vivo, read-out: Liver uptake): 14.8 ± 4.7 %ID/g
tissue uptake at 48 h ([1]; in vivo, read-out: Lungs uptake): 11.5 ± 0.4 %ID/g
tissue uptake at 48 h ([1]; in vivo, read-out: Muscle uptake): 0.3 ± 0.08 %ID/g
tissue uptake at 48 h ([1]; in vivo, read-out: Pancreas uptake): 0.9 ± 0.4 %ID/g
tissue uptake at 48 h ([1]; in vivo, read-out: Skin uptake): 1.5 ± 0.2 %ID/g
tissue uptake at 48 h ([1]; in vivo, read-out: Spleen uptake): 25.8 ± 5.5 %ID/g
tissue uptake at 48 h ([1]; in vivo, read-out: Tumor uptake): 1.6 ± 0.1 %ID/g
tissue to tissue ratio at 48 h ([1]; tumor / muscle, RM-1 model, 48-hour timepoint, read-out: tumor-to-muscle uptake-ratio): 5.5 ± 1.5

CC(=O)Nc1nnc(S(N)(=O)=O)s1 [acetazolamide]
effect on kidney uptake [2]: not significant; also recorded: none of these drugs led to a significant reduction of kidney uptake

N=C(N)NC(=O)c1nc(Cl)c(N)nc1N [amiloride]
effect on kidney uptake [2]: not significant; also recorded: none of these drugs led to a significant reduction of kidney uptake
